Experimental data as given in PMC8511506 (2021).
One block for each binder: values may come before it.

Target: Ubiquitin (UniProt P0CG47 1-76)
Test: ITC

Kd: 136 µM
B1: CYLD CAP-Gly2 (aa 226-313) (domain or fragment)
chain: ELPPLEINSRVSLKVGETIESGTVIFCDVLPGKESLGYFVGVDMDNPIGNWDGRFDGVQLCSFACVESTILLHINDIIPALSESVTQE

Kd: 319 µM
B2: CYLD CAP-Gly3 (aa 460-582) (domain or fragment)
chain: LAMPPGNSHGLEVGSLAEVKENPPFYGVIRWIGQPPGLNEVLAGLELEDECAGCTDGTFRGTRYFTCALKKALFVKLKSCRPDSRFASLQPVSNQIERCNSLAFGGYLSEVVEENTPPKMEKE
